Data reported in patent US20210054047A1, “NOVEL ANTICANCER FUSION PROTEIN AND USE THEREOF” (KOREA INSTITUTE OF SCIENCE AND TECHNOLOGY, priority 2018, published 2021).

Columns and labels:
[1] = biological target: T1, DR4 (Homo sapiens, UniProt O00220); experiment: SPR binding to immobilized DR4-Fc
T1 construct: purchased R&D systems 347-DR-100
Protocol: Binding experiments of TTPN and mTRAIL to TRAIL receptors DR4 and DR5 were analyzed at 25° C. using a surface plasmon resonance apparatus (SR7500 DC, Reichert Inc., NY, USA). DR4 and DR5-fc chimeric proteins (R&D systems 347-DR-100, 631-T2-100) were immobilized on the surface of the Planar Protein A sensor chip (Reichert, 13206069) and the receptors were coated at a level of 300 to 500 resonance units. SPR kinetic titrations were performed by adding 250 μl of TTPN and mTRAIL with different concentrations in the range of 1.56 to 400 nM and 0.1 to 25.6 μM, respectively, increasing by four times. Each analyte was run at 50 μL/min using running and sample buffer (0.5 M Tris-HCl (pH 7.4), 150 mM NaCl, 0.005% Tween 20), and binding of the ligand to the receptor was performed and monitored in real time. For titration sensorgrams, a simple 1:1 Langmuir interaction model (A+B↔AB) was applied using the data analysis program Scrubber 2.0 (BioLogic Software, Australia, and KaleidaGraph Software, Australia) and CLAMP software.
The affinity KD was determined from the formula of KD=kd/ka. Results are based on representative sensorgrams obtained from saturation binding reactions averaged over at least three independent runs of SPR measurements (FIG. 31).

[2] = In vitro stability (soluble protein in buffer over time); format: physicochemical
Protocol: The stability of TTPN, DOX-TTPN and mTRAIL was investigated by measuring changes of concentration in a suitable buffer solution. […] At predetermined times, aggregated proteins were collected at 13,000 rpm for 10 minutes, and the concentration of soluble DOX-TTPN and TTPN in the supernatant was measured using absorbance in UV280.

[3] = tested on: HepG2 cells; experiment: Annexin V/PI flow cytometry of apoptosis, HepG2; format: cell-based, human; conditions: for surviving tumor cells (Annexin V/PI double negative): 24 hours
Protocol: FIG. 19 is a series of histograms representing flow cytometry analysis of TRAIL-mediated apoptosis of HepG2 cells as an analysis of in vitro TTPN-mediated apoptosis on TRAIL-sensitive-HepG2 cells. Cells were incubated for 24 hours in the presence of different concentrations of mTRAIL and TTPN and analyzed by Annexin V/PI double staining.
In addition, to investigate whether apoptosis induced by TTPN is induced by the pro-apoptosis pathway of tumor cells, fluorescence-activated cell sorting (FACS) using double staining of Annexin V/propidium iodide (PI) was performed. […] (FIG. 21).

[4] = tested on: HT29 cells; experiment: Annexin V early apoptosis flow cytometry, HT29; format: cell-based, human; conditions: HT29, low concentrations, 24 hours
Protocol: HepG2, HT29, or MCF7 cells (1.5×10^4) were cultured in a 96-well plate for 1 day, after which DOX-TTPNs, DOX-FTNs, free DOX, empty TTPNs, or buffer was added to each well. After 24 hours, cell viability was measured using a CCK-8 assay (Dojindo Molecular Technologies) according to the manufacturer's instructions. For analysis of early apoptosis, HT29 cells in 6-18 well culture plate were treated with DOX-TTPNs, free DOX, empty TTPNs, or buffer for 24 hours. Thereafter, cells were incubated with Alexa Fluor 488-conjugated annexin V (Invitrogen) 20 for 15 minutes, then analyzed using an Accuri™ C6 flow cytometer (BD Biosciences) and FlowJo 21 v10 software.

[5] = tested on: PARP; experiment: Western blot of HT29 lysates: PARP; format: cell-based, human; conditions: HT29, 24 hours
Protocol: (§1) After incubating HT29 cells with 50 nM DOX-TTPNs, DOX-FTNs, free DOX, or buffer for 24 hours, cells were lysed with radioimmunoprecipitation assay (RIPA) buffer (Cell Signaling Technology) and the concentration of proteins was measured using a DC protein assay kit (Bio-Rad). Equal amounts of proteins (30 μg) were resolved by SDS-PAGE and transferred to nitrocellulose membranes. After blocking with 5% skim milk in Tris-buffered saline containing 0.1% Tween-20 (TBST), membranes were incubated first with anti-Cl-PARP, anti-Cl-caspase-6, anti-cFLIP, anti-Bcl-xL, anti-XIAP, anti-Cl-caspase-3, or anti-GAPDH primary antibody (Cell Signaling Technology), and then with anti-mouse or anti-rabbit secondary antibodies (Sigma-Aldrich), as appropriate. Immunoreactive proteins were visualized using enhanced chemiluminescence (ECL) chemical reagents (Bio-Rad) and ChemiDoc (Bio-Rad), and were analyzed using ImageJ software.

[6] = tested on: XIAP; experiment: Western blot of HT29 lysates: XIAP; format: cell-based, human; conditions: HT29, 24 hours
Protocol: as §1

[7] = tested on: DR5; experiment: Western blot time course of DR5 levels in HT29; format: cell-based, human; conditions: HT29, 4, 12 and 24 hours
[8] = tested on: HT29 tumor; experiment: TUNEL analysis of HT29 tumor tissue; format: in vivo, mouse; conditions: HT29 tumor tissue at the end of the study
From the text: In the evaluation of the anti-tumor effect of the present invention, BALB/c nude male mice (6-7 weeks old) were used as an animal model. Particularly, HT29 cells (5×10^6) and HepG2 cells (5×10^6) were subcutaneously inoculated into the left dorsal flank of BALB/c nude mice, respectively. After a volume of tumors reached ˜80-100 mm^3, mice were randomly divided into the 14 following five treatment groups (6 mice/group); DOX-TTPNs, DOX-FTNs, free DOX, empty TTPNs, and buffer. Mice were intravenously injected five times, once every 2 days, and volume of tumors was determined as 1/2(Length×Width^2). Apoptotic cell death in tumor tissues was analyzed using TUNEL staining (In situ Cell Death Detection kit; Roche), and cells were stained with DAPI (4′,6-diamidino-2-phenylindole), as previously described (Kih et al., Biomaterials 180: 67-77, 2018). Apoptotic cells were visualized under a Nikon Eclipse Ti microscope (Nikon) and quantified as the number of TUNEL-positive cells per total number of cells using ImageJ software. After 21 days from injecting tumor cells, tumor tissues were excised from the experimental mice, and cryo-sections (3.5 μm) were fixed with 10% neutral buffered formalin and paraffin-embedded tissue blocks.

[9] = Dynamic light scattering (DLS) size; format: physicochemical
[10] = Transmission electron microscopy (TEM) size; format: physicochemical
Protocol: TEM analyses of TTPN and wtFTN were imaged by bio transmission electron microscopy (Hitachi). […] The hydrodynamic sizes of TTPN-DOX and TTPN were analyzed by dynamic light scattering (DLS) using a Zetasizer Nano ZS system (Malvern Instruments, Ltd., UK), as previously described (Zidi et al., Med. Oncol. 2010, 27(2): 185-198, 2010).

[11] = over 1 month (Kih et al.); cited from earlier work

T1 sequence (O00220 with tags, fused parts or gaps limits assumed): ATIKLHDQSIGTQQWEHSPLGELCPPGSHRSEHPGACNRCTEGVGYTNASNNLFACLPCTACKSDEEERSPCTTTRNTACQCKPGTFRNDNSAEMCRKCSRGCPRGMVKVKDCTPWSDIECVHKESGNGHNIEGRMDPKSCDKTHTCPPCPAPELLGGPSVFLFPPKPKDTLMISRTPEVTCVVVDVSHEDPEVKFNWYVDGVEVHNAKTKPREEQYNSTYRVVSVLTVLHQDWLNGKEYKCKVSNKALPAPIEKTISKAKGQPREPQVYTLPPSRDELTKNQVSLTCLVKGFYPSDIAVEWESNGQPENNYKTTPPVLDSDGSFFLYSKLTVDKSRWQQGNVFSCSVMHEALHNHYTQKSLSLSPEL

- ka ([1]; DR4-Fc immobilized, 25° C.): 3.23 (±0.26) · 10^4 M^−1 · S^−1
- kd ([1]; DR4-Fc immobilized, 25° C.): 2.42 (±0.48) · 10^−5 s^−1
- increased affinity compared with monomeric TRAIL ([1]; for DR4 and DR5): up to 330 fold
Substance: TTPN: protein nanocage presenting TRAIL as natural-like homo-trimers; TRAIL 95-281 fused by linker peptide to human ferritin heavy chain
- stability in solution ([2]; 15 mg/mL in PBS buffer for 24 hours (FIG. 15)): remarkably improved stability
- amount maintained in the soluble form ([2]; after 1 month, 10 mg/mL (FIG. 16)): more than 90%
- surviving tumor cells (Annexin V/PI double negative) ([3]; HepG2, 0.4 nM): 83.5%
- surviving tumor cells (Annexin V/PI double negative) ([3]; HepG2, 100 nM): 12.0%
- concentration at which Annexin V-positive cells were detected ([3]; HepG2, 24 hours (FIG. 20)): 0.4 nM
- induction of early apoptosis [4]: ineffective in inducing apoptosis
- increase in PARP relative to buffer-treated controls (defined as 1) [5]: 457 fold
- decrease in XIAP levels compared with buffer treatment [6]: no significant effect
- DR5 expression levels over time [7]: no significant change
- TUNEL-positive tumor cells [8]: 0.01%
- average size (DLS) [9]: 25.85 nm
- average size (TEM) [10]: 24-28 nm
- stability [11]: more than 90%
